“And” between values parts separate entries of the source, which are not always exact repeats. Equal values may be shown once.
Biological target: T1, Biotin Ang2 (R & D Systems) (UniProt O15123 19-496, biotinylated (sites not given))
T1 sequence (looked up): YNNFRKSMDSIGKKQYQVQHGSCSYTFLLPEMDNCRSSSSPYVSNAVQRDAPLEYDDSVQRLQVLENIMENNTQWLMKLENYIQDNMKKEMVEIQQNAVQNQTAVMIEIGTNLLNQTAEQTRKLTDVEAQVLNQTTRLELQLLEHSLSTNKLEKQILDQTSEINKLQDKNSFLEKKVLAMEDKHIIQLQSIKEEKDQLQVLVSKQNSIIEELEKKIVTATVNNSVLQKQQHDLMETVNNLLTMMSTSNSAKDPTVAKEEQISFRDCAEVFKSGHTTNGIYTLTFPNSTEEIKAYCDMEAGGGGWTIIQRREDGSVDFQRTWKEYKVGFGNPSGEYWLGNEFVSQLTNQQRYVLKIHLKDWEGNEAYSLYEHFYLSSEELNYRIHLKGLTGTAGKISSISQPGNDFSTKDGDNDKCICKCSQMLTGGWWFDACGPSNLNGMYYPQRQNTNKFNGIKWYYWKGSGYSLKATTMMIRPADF
Experiment: competition ELISA: Tie-2 Fc coated on the plate, antibody varied, blocked ligand binding is Biotin Ang2 to Tie-2 Fc, streptavidin HRP, O.D. 450 nm
Experimental: The following day, plates were blocked for 1 hour at room temperature with 200 μl of phosphate buffered saline (PBS) (Invitrogen, Carlsbad, Calif.) containing 0.5% bovine serum albumin (BSA) (Sigma, St. Louis, Mo.) and 0.1% Tween-20 (Sigma, St. Louis, Mo.). Plates were washed 3 times with wash buffer (PBS containing 0.05% Tween-20). […] Plates were washed 3 times with wash buffer. Following the wash, 100 ul of 1:5000 streptavidin HRP (Pierce, Rockford, Ill.) dilution in wash buffer were added and incubated for 1 hour at room temperature. Plates were washed 3 times with wash buffer. Plates were developed by adding 100 μl of TMB peroxidase substrate (KPL, Gaithersburg, Md.) for 5 minutes. The reaction was stopped by adding 100 μl/well of 1M phosphoric acid. Optical densities were measured at 450 nm with a microplate reader (Molecular Devices, Sunnyvale, Calif.).

IC50 (read off the curve): ~0.1 mg/L and ~0.2 mg/L
B1: Ang-2 antibody 3.19.3 (antibody, V domains shown)
VH: QVQLVESGGGVVQPGRSLRLSCAASGFTFTNYGMHWGRQAPGKGLEWVAVISHDGNNKYYVDSVKGRFTISRDNSKNTLYLQMNSLRAEDTAVYYCAREGIDFWSGLNWFDPWGQGTLVTVSS
VL: EIVLTQSPGTLSLSPGERATLSCRASQSITGSYLAWYQQKPGQAPRLLICGASSWATGIPDRFSGSGSGTDFTLTISRLEPEDFAVYYCQQYSSSPITFGQGTRLEIKR
notes: Fully human monoclonal antibody; also called WT

Reference: patent US20170174756A1 (AstraZeneca / MedImmune, published 2017)
